Measured values: the nanobody polyreactivity screen of Harvey et al. (2022)

Test: yeast display, Sf9 membrane polyspecificity reagent, FACS + sequencing; frameworks hold sequencing errors
How it was run: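 Sorting gates, low and high (top ~1%), were placed on anti-HA fluorescence to track expression and on streptavidin fluorescence to track reagent binding. A clone's polyreactivity label is taken from the gate it came out of. The reagent was 10% biotinylated, detergent-solubilized Sf9 membrane, applied for 1 hour at 4 °C to galactose-induced yeast display cells.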

Row | Sequence | polyreactivity (PSR sort gate)
1 | QVQLVESGGGLVQAGGSLRLSCASSGSIFEANAMGWYRQAPGIESELVAAISTTGGNTYYADSVKGRFTISRDNAKNTVYLQMNSLKPEDTAVYYCAADPSQPRIDSSNYDYWGQGTQVTVSS | low polyreactivity
2 | QVQLVESGGGLVQAGGSLRLSCASSGSIFEGYVMGWYRQAPGKERELVAAITTGGGSTYYADSVKGRFTISRDNAKNTVYLQMTSLKPEDTAVYYCAKDYWFGYEYWGQGTQVTVSS | low polyreactivity
3 | QVQLVESGGGLVQAGGSLRLSCASSGSIFFGYGMGWYRQAPGKERELVATITTSGGTYYADSVKGRFRISRDNAKNTDYLQMNSLKPEDTAVYYCAATAAALDGNTIMYYWGQGTQVTVSS | low polyreactivity
4 | QVQLVESGGGLVQAGGSLRLSCASSGSIFSSNTMGWYRQAPGKERELVAAITVSGGRTYYADSVKGRFTISRDNAKNTVYLQMNSLKPEDTAVYFCAARYANTYRTETSYPRYYSWGQGTHVTVSS | high polyreactivity
5 | QVQLVESGGGLVQAGGSLRLSCASSGSIFWQNTMGWYRQAPGKERELVATITSAGSTYYADSVKGRFTISRDNAKNTVYLQMNSLKPEDTAVYYCAKGHQPGHVFHPEYGYDYWGQGTQVTVSS | low polyreactivity
6 | QVQLVESGGGLVQAGGSLRLSCASSGSIFYGYAMGWYRQAPGKERELVAAINNSGVSTYYADSVQGRFTISRDNAKNTVYLQMNSLKPEDTAVYYCNKAGAYPYHYDYWGQGTQGTVSS | low polyreactivity
7 | QVQLVESGGGLVQAGGSLRLSCASSGSIFYNNAMGWYRQAPGKERELVAAIRSTGTRTYYSDSVKGRFTISRDTAKNTVYLQMNSLKPEDTAVYYCAVGDYGLWSYDYWGQGTQVTVSA | low polyreactivity
8 | QVQLVESGGGLVQAGGSLRLSCASSGSILVHYAMGRYRQAPGKERELFAAISRGGSTNYADSVKGRFTISRDNAKNTVYLQMNSLKPEDTAVYFCAARHGQSWQWLEYDYWGHGTQVTVSS | low polyreactivity
9 | QVQLVESGGGLVQAGGSLRLSCASSGSNTFINAMGWYRQAPGKERELVAAISGSGGSTYYADSVKGRFTISRDNAKNTVYLQMNFLKPEDTAVYYAARTGQYKTYGEYDYWGQGTQVTVSS | low polyreactivity
10 | QVQLVESGGGLVQAGGSLRLSCASSGSTFDINAMGWYTQAPGKARELVAAITCGGGTNYADSVKGRFTISRDNAKNTVYLEMNSLKPEDTAVYYCAAVYYSTDYYFWYDYWGQGTQVTVSS | low polyreactivity
11 | QVQLVESGGGLVQAGGSLRLSCASSGSTFDYYVMGWYRQEPGIVRELVASISSGGSTYYADSVKGRFTISRDNAKNTVYLQMNSLKPEDTAVYYCAARYYGRVGGYSIGYNYWGQGTQVTVSS | high polyreactivity
12 | QVQLVESGGGLVQAGGSLRLSCASSGSTFFTNAMVWYRQAPGKERELVATITWSGGTTYADSVKGRFTISRDNAKNTVYLQMNSLKPEDTAVYYCADESSSYWGDQGGALWLYDYWGQGTQVTVSS | low polyreactivity
13 | QVQLVESGGGLVQAGGSLRLSCASSGSTFNPYAMGWYRQAPGKERELVAAISRGGRTKYADSVKGRFSISRDNAKNTVYCHMNSLKPEDTAVYYCAARQRSRSRYDYWGQVTQVTVSS | high polyreactivity
14 | QVQLVESGGGLVQAGGSLRLSCASSGSTFSYYTMGWNRQAPGKERELVAAITRSGGRTYYADSVKGRFTISRDNAKNTVYLQMNSLKPEDTAVYNCAAYRANSGEFDYWGQGTQVTVTS | high polyreactivity
15 | QVQLVESGGGLVQAGGSLRLSCASSGSTFVSYAMGWYRQAPGKERELVAGISWSGTRTYYADSVKGRFTISRDNAKNTVYLQMNSLKPEDTAVYYCAALDSSYNWYGYWGQGTQVTVSS | high polyreactivity
16 | QVQLVESGGGLVQAGGSLRLSCASSGSTFVSYVMGWYRQAPGKERELVARITISSGSTRYADSVKGRFTISRDNAKNTVYLQMNSLKPEDTAVSYCAVDAVDAFVFLSWDYDYWGQGTQVTVSS | low polyreactivity
17 | QVQLVESGGGLVQAGGSLRLSCASSGSTIGRNAMGWYRQAPGKERELVASISSGGSTYYADSVKGRFTISRDNAKNTVYLQMESLKPEDTAVYYCARRAYQNWYNYWGQGTQVTVAS | high polyreactivity
18 | QVQLVESGGGLVQAGGSLRLSCASSGSTIVHYAMGWYRQAPGKERELVAGITDTDNHELRRLCEGRFTISRDNAKNTVYLQMNSLKPEDTAVYFCNADDTYYQLGGITGYDYWGQCTQVTVSS | low polyreactivity
19 | QVQLVESGGGLVQAGGSLRLSCASSGSTLFPYAMGWYRQAPGKERELVAAISSRGGRTYYADSVKGRFTISRDNAKNTVYLQMNSLKPEDTAVYYCAAGDDYWGQGTQVTVSS | high polyreactivity
20 | QVQLVESGGGLVQAGGSLRLSCASSGYIFGRYAMGWYRQAPGKERELVAAISSTGDSTYYADSVKGRITISRDNAKNTVYLQMNSLKPEDTAVYYCNAVVPRYSYGRYYYWGQCTQVTVSS | high polyreactivity
21 | QVQLVESGGGLVQAGGSLRLSCASSGYIFRSYAMGWYRQAPGKERELVATISWIGGGTSYADSVKGRFTISRDNAKNTVYLQMNSLKPEDTAVYYCAAGPWAYGRRHAYYSRSFDYWGQGTQVTVSS | high polyreactivity
22 | QVQLVESGGGLVQAGGSLRLSCASSGYTFDYYTMGWYRQAPGKERELVARITASGGSTYYADSVKGRFTISRDNAKNTVYLQMNSLKPEDTSVYYCAKAWYRYSRFDYWGQGTQVTVSS | high polyreactivity

Row | Sequence | polyreactivity (PSR sort gate)
23 | QVQLVESGGGLVQAGGSLRLSCASSGYTLRPNGKGWYRQAPGKERELVAAISSGGSTYYADSVKGRFTISRDNAKNTVYLQMNSLKPEDTAVYYCAAEYWYDYWGQGTQVTVSS | low polyreactivity
24 | QVQLVESGGGLVQAGGSLRLSCASSVIILVQYVMGWYIQAPGKERELVASISRTGGSTNYADSVKGRFTISRDNAKNTVYLQMNSLKPEDTAVYYCSAKKRKIAGVGGDYWGQGTQVTVSS | high polyreactivity
25 | QVQLVESGGGLVQAGGSLRLSCASSVRIFGSNVMGWYRQAPGKERELVASISSGGNTYYADSVKGRFTISRDNAKNTVYLQMNSLKPEDTAVYYCAARRGSAGQWYDYWGQGTQVTVSS | high polyreactivity
26 | QVQLVESGGGLVQAGGSLRLSCASSVYIFVSNTKGWYRPAPGKERELVAAISWSGGSTNYADSVKGRFTISRDKAKNTVYLLMNSLKPEDTAVYYCNADDASHYYFRDDYWGQGTQVTVSS | low polyreactivity
27 | QVQLVESGGGLVQAGGSLRLSCASYGRTFYDYAMGWYRPAPGKERELVAGIRWSGGSTYYADSVKGRFTISRDNAKNTVYLQLNRLKPEDTAVYYCAADWFAGVAADVEYDYWGQGTQVTVSS | low polyreactivity
28 | QVQLVESGGGLVQAGGSLRLSCATGSIFGYNAMGWYRQAPGKERELVAAITSGGSTYYADSVKGRFTISRDNAKNTVYLQMNSLKPEDTAVYYCNRDDYNTAYRDASGYWGQGTQVTVSS | low polyreactivity
29 | QVQLVESGGGLVQAGGSLRLSCATSGFTFVYNAMGWYRQAPGKESELVAAINWSGGRTYYADSVKGRFTISRDNAKNTVYLQMNSLKPEDTAVYYCAAGYSPYKGSAGYYWGQGTQVTVSS | low polyreactivity
30 | QVQLVESGGGLVQAGGSLRLSCATSGSTFNDYDMGWYRQAPGKERELVAAISSSVSTYYADSVKGRFTISRDNAKNTVYLQMNSLKQEDTAVYYCAADYTGVCRYDYWGQGTLVTVSS | low polyreactivity
31 | QVQLVESGGGLVQAGGSLRLSCATSRSTFVLYAMGWYRQAPGKERELDAAISGGATTTYADSVKGRFTISRDNAKNTVYLQMNSLKPEVTAVYYCAADFSTYVVSGAALDYWGQGTQVTLSS | low polyreactivity
32 | QVQLVESGGGLVQAGGSLRLSCDASGAIFFSYAMRSYREAPGKERELVATITAGGGSTNYADSVKGRFTISRDNAKNTVYLQMNSLKAEDTAVYYSAAKRLSWHRYGYWGQGSQVTVSS | low polyreactivity
33 | QVQLVESGGGLVQAGGSLRLSCDASGFIFDEYAMGWYRPAPGEERELVAAINWRGGSTYYADSVKGRFTISRDNAKNTVYLQMNSLKPEDTAVYYCAARNVYVWYDYWGQGTQVTVSS | low polyreactivity
34 | QVQLVESGGGLVQAGGSLRLSCDASGFIFGRNAMGWYRQAPGKERELVAGISSSGFRTFYADSVKGRFTISRDNAKNTDYLQMNSLKQEDTAVYYCAAEIRYYKYGSYYYWGKGTQVTVSS | high polyreactivity
35 | QVQLVESGGGLVQAGGSLRLSCDASGFIFNAYAMGWYRQAPGKERELVAAISTRGSNTYYADSVKGRFTISRDNAKNTVYLQMNSLKPDDTAVYYCAARGYVTFSKSNYWGQGTQVTVSS | high polyreactivity
36 | QVQLVESGGGLVQAGGSLRLSCDASGFIIARNAMGWYRQAPGKERELVAAISASGGRTYYADSVKGRFTISRDNAKNTVYLQMNSLKPEDTAVYYCAARRDGRSGSYNYWGQGTQVTVSS | high polyreactivity
37 | QVQLVESGGGLVQAGGSLRLSCDASGFISRYAMGWYRQAPGKERELVAAINRSGGRTYYADSVKGRFTISRDNAKNTVYLQMNSLTPEDTAVYYCAALRGRYYGVLGEYWGQCTQVTVSS | high polyreactivity
38 | QVQLVESGGGLVQAGGSLRLSCDASGFTFATYAMGRYRQAPGKERELVAAISSGGYTYYADSVKGRFTISRDNAKNTVYLQMNSLKPEDTGVYYCNVSIGLFYLWYFNRYYYWGQGTQVTVSS | high polyreactivity
39 | QVQLVESGGGLVQAGGSLRLSCDASGFTFKTNAMGWYRQAPGKERELVAAINRSGGSTYYADSVKGRFTISRDNAKNTVYLQMNSLKPEDTAVYYCATRSYLPGVRRGYDYWGQGTQVTVSS | high polyreactivity
40 | QVQLVESGGGLVQAGGSLRLSCDASGFTLAWNARGWSRQAPRKERELVATISRSGSSTSYADSVKGRFTISRDNAKNTVYLQMNSLKPEDTAVYYCAKSGRYGFWGQGTQVTVSS | high polyreactivity
41 | QVQLVESGGGLVQAGGSLRLSCDASGGTFVHNAMGWYRQAPGKERELVAAISWSGGSTYYADSVKGRFTISRDNATNTVYLQMNSLKPEDTAVNYCAADLPDYKDIFDSWGQGTQVTLSS | low polyreactivity
42 | QVQLVESGGGLVQAGGSLRLSCDASGIIFFIYTMGWYRQAPGKERELVAVITRGGRTKYADSVKGRLTISRDNAKNTVFLQMNRLNPEDNAVYYCAAKGSRSYYWGQGTHVTVSS | low polyreactivity
43 | QVQLVESGGGLVQAGGSLRLSCDASGIIFPYYAMGWYRQAPGKERELVAGISSSGGITYADSVKGRFTISRDNAKNTVYLQMNSLNPEDTAVYYCNAEYQWLEYDYWGQGTQVTVSS | low polyreactivity
